Source: the DeepSol protein solubility set

experiment: soluble on expression in E. coli; label from the status in PepcDB or PDB records

Row | Sequence | soluble on expression in E. coli
1 | TQETFPPKYLHYDEETSHQLLCDKCPPGTYLKQHCTAKWKTVCAPCPDHYYTDSWHTSDECLYCSPVCKELQYVKQECNRTHNRVCECKEGRYLEIEFCLKHRSCPPGFGVVQAGTPERNTVCKRCPDGFFSNETSSKAPCRKHTNCSVFGLLLTQKGNATHDNICSGNSESTQKCGIDVTLCEEAFFRFAVPTKFTPNWLSVLVDNLPGTKVNAESVERIKRQHSSQEQTFQLLKLWKHQNKDQDIVKKIIQDIDLCENSVQRHIGHANLTFEQLRSLMESLPGKKVGAEDIEKTIKACKPSDQILKLLSLWRIKNGDQDTLKGLMHALKHSKTYHFPKTVTQSLKKTIRFLHSFTMYKLYQKLFLEMIGNQVQSVKISCL | not soluble
2 | MGSDKIHHHHHHMYLITSAAMVASELQSEFGPLPPCFLPVGNKRLFHHQLALIPAGERTIITLPEGFTPGPYDSQSLKDYGVELLYLPPTLSLGESIVYALIQLEFADDEPLYILHGDTLFDSLPRQTDCLGLSQVEDNYNWAEFDAQSGTLRPYHAELRPSSELISNGFFSFSAPRTLIRYITQAKGDFIAGLNGYIDDKGLTPITLPHWYDFGHSHTYYQSKSRMTTQRAFNGMAIQGQVVKKFSRNKHKLAAEANWYQSLPGPMRGYIPQLLGCDESPELFGYSIEYLHLTALNELYVFSQLPAFAWRKVLKACCQFLKDASSYSVADAQTLSGLFMDKTLSRLEDFASQSGISVAQENRINGALRPSLLELARISREYLPKDNGRQHLLHGDFCFSNILYDFRTCNIKVIDPRGLDGNDKQTIHGNGLYDIAKLAHSVLGLYDAIIAGYFKAERLGQNLDFSIAITPRREQIMADFVRLMASEFAVSEAELYAMQIQLFLSMLPLHSDRPDRQLGFIGNAYRLYDRLLACTGNPS | not soluble
3 | MKKPKHDLTHVRHDPAHCLAPGLFRSLKRGDRKRCKLDVTYTFGEDESMRFVGFEPLGADDMRLLQGIVALGGPNGILLTPEPTSETGRQLRLFLEPRFEAIEQDGLVVRESLTKLLSETGMTDSGDNIKALKASLLRMSNVTILVTKGRRQAAFHLMSHAFDETDGRLWVALNPRIAEAILGHRPYARIDMAEVRVLQTDPARLMHQRLCGWIDPGKSGRVELDTLCGYVWPDEANAEAMKKRRQTARKALAELAAVGWVVNEYAKGKWEIKRPGPTATAPVYRRNVPLLPS | not soluble
4 | MAGRLREMRCELSFLKNADGSACFSQGATCIWASCSGPGDVHASKASDEAMTLDISYRANCGDNKFNVLNNIIHSTLSNAINLELFPHTTISVTVHGIQDDGSMGAVAINGACFALLDNGMPFETVFCGVLIVRVKDELIIDPTAKQEAASTGRVLFSVCKGSDGHPEVCAMDAIGHWDFIQLEAAWSLAQPSASAIFDFYKTVMKRKLSVDEQ | not soluble
5 | MAHHHHHHMNRLTNTNKGYTTNKEYISNNAQKNICTINYGQTYSNILNDEEKEKILQQYIYTLSHLSIIDIDREKDISLNISLLLKACLASHNYIKNVEIYTSQIKNQDICSFIYENRTDFEDFVNTHILKYIEFFNKDKIEDTLQSYIKDKILYDNELNIFNIIKNNNIELRKDILQDISFECIRLNKIIQYSLAVNKLDLFSYHIIFKIFMYFKTDQFYYHLFLNNIQKIKYYYSIKNITDQHKEIIYKIVDKYLYIIHYMNNMYQNRDIKNV | not soluble
6 | MKAETTTGVEELLNELVGRAAGEVGLILFSLGIEGEFTDDQLSLELGIEINEIRKALFALYEIGLADYVRRRDDETGWMEYYWRINYDKALDVLKRELEKTAKKLREKIEAETSTIYYICPNMCVKVSYNDAMELNFTCPRCGAMLDYLDCSKAIEKIEEEVRRIEEILESLDKNSG | not soluble
7 | DFVGGTKMNMPAAQLETSEVADTFKDATGIEPELVQIVGSGDTRILEINSERLSEDQISQARVALFEKYQPVGSQGQPTPDAIGDSTVSESWGSTITQR | not soluble
8 | MGSDKIHHHHHHMTVHHHHHTHHVSLHKIKKLFSKHSSHGHKLTRDEARSALHDIEHLAKELHFQKVFDHHAHDGHISLKGFLSFISPHHGHHTHHAHGAHPGHHEVHHHHHHVKAQDSSSSSSSSSSSSSSSSSSSSSSSSSSSESEDEKHHHKKHAKKHLKKHHKKAESSSSSSSSSSSSSSSSSSSSSSESEDEKHHHKKHAKKHLKKHHKKAESSSSSSSSSSSSSSSSSSSSSSSESEDEKHHHKKHAVKKHHKKAESSSSSSSSSSSSSSSSSSEDEKHHHKKHAAKKHVKHHKKAASSSSSSSSSSSSSSSSSSSSSSESEDEKKKKKVHHKKSHGKKHHKKAASSSSSSSSSSSSSSSSSSSESEDEKKHAPAHHEHHEHKDGAHHEHKEGEHHEHAAHHDEHGVHHRHHGEHHGTHHSPAHHGEHGTHHGHHGEHHHAPAHHGHHESHGHGHHSPAHHGHHGEHHHAPAHHGHHGEHHHAPAHHGHHGEHGTHHGHHGSHHSPAHHGHHGEHHHAPAHHGHHGEHGTHHGHHGEHHHAPAHHGHHGEHGTHHGHHGSHHSPAHHGHHGEHHHAPAHHGHHGHHGSHGVHHGHHESHGHGHHAPAHHGHHGEHGVHHGHHGAGYGAHHGHHGAHHHHAPHHEHHEHHGDHHHGSHGVHHGHHGTHHSLAHHGHHGGHGTHHGAHHSPAHHGHHGAHHEHGAHHGAHHGHHDDKENHHHHGHHSKHSKKQHTKKSHKKSH | not soluble
9 | MRSTEVGRVVEDFIVLPPTPKSKWKLSDFELLHKLGGGNYGDVHLASVKDCNFVCALKRLSIKKLADFDIATQLRREIEIAFNTRHKYLLRTYAYFFDETDIYLIMEPCSNGMLYTELNRVKCFAPPTAARYVAQLAEALLYLHQHHILHRDIKPENILLDHNNNIKLADFGWSVHDPDNRRKTSCGTPEYFPPEIVGRQAYDTSADLWCLGIFCYELLVGKTPFVGKDTDQICKNIHSMHFKIPENIPSEAKDLIANLLLRDGSRRLALHRVVNHQFLLKYYYLPNNLQPPTGKRPRLDAEPTAGKEN | not soluble
10 | MPLPSFLEVYEGLISTSSISSTDARWDEGNEQVIAKLADWLSALGFSIQIEQVAPNKQNLIAKLGSGEGGLLLAGHSDTVPFDEGRWNYNPHALTQVNNRFYGLGTADMKGFFAFIYEAVKNVDWSKQTKPLYVLATCDEETTMLGARHFTENAPFKPDYCIIGEPTSLVPIRAHKGHVANAIRVTGKSGHSSNPALGVNAIEIMHEVLFALMQLRDRLIKEYHHPGFEIPTPTLNLGHIHGGDSPNRICGCCELHYDVRPLPGISLDGLDNLMHDALREVQQKWPGRIELVPLHDPIPGYECAHDHPFIHGISEICEQEAQTVNYCTEAPFLQQVCPTLVLGPGSIDQAHQPDEFLAFEFIDPTVRVLSRAMQKYCF | soluble
11 | MSLFDPNDYKDEIRQIARDKANLELDLKGDIGWSLFPWLGLELHDTSIASAATPTKPFADLQMLGLSVRVLPLLRKDVQMSAIRVEGLSLDLVRDKQGKGNWENIGKPAQPQAPAAPSETPPAADGKGAQAQAPEQAPQNDSPRTPIKLDIDSLNVNNARVTYTDEASGKQYNVEGIELSTGAIREGSSIPLKLNAYLGTNQPVVRVKTELTGNLRFDTALRRYQLEDARLSGEASGEPLQGKTATFSAQGQLLLDQSAQIAEWNGLKLSVNQLRALGELKARELDKDTKFSGGLSIAPMNLREFLAGIGVTLPAMADANTLGKFELNTRLAGSRNSLNLEDLKLGLDDTAFSGRFGIADFARQSLRAQLKGDKLDLDRYLPAKAKQAQDAASATRKAEVDATVASAAQGNTPLPEKPTRQAWSDAPLLPIATLRKLDLDVALNFGRLTVEKLPIDDASLKLRGQGGVISLDDMRGGLYNGRFNAKANLDVRQDSAVLTATKHIANVPVERLLEAQGKKPPVKGLLDLDADIRTSGNSEKSWIDHLNGNARFSLINGVLPDANLEQQLCQGIATLNRKALAGTHGGKDTPFRELKGSLNFTNGVASNPDLKVAIPGLAVSGHGDIDLRVLGMDYRIGVEIQGDKSDMPDPACQVNQRYAGIEWPLLCRGPLELGAKACRLDKEGMGKVAAKLAGNRLNEKLEEKLGDKVSPELKDALKGLFNRKEGHHHHHH | soluble
12 | SLGWQISRFNRAFDTLCQQGRVGVGRSSGRFKPRVVVAIALDDQQRIVDTLFMKGLTVFARPQKIPAITGMHAGDLQPDVIFPHDPLSQNALSLALKLKRG | soluble
13 | SLSSTQSVNSVLAPGNLRKVHHIALNVQDMQASRYFYGTILGLHELTDDEVPATLTELVASGKVANFITPDGTILDLFGEPELSPPDPNPEKTFTRAYHLAFDIDPQLFDRAVTVIGENKIAIAHGPVTRPTGRGVYFYDPDGFMIEIRCDPEAEG | soluble
14 | MFKRVGIFVALVTLSLIFNQPATAGRTVEDFQVWGNITALGNFGFVNPGNPDLKKFRWWMEGQGRFGNDSSQFTQAIIRPGLGYAITDKIIIWAGYAWIPSDEPLVPKSGLPFDEHRIWQQVTWADEFSFGKLSLRSRFEQRFFDHNAPVSGSDDVAYRFRQLVKLAIPVAMIDPNLTFIIQNELFIGLNTVSNPGFISRGFDQNRAFVGLGYKVHQNATVELGYMNQFIDRRHNPRPDQMMHNFAVNLFLNF | not soluble
15 | MDKLKIIMEKGTERLKRGFAKMVKGGVIMDVTNAEQARIAEEAGAVAVMALHKVPADIRKAGGVARMAPVEKIQEIMDAVTIPVMAKCRIGHEAEARILEALGVDMIDESEVLTPADPFFHIYKKKFTAPFVCGARNLGEAVRRIWEGAAMIRTKGEAGTGNIIEAVRHVRLVNENIRLIQRMTDEEIYGVAEKFAEPYLRLAFSVKEISGLPKRVLENEPIYEGFTYREIVEDIYKILLEIKKLGRLPVVNFAAGGVATPADAALMMAMGMDGVFVGSGIFKSSNPPKMARAIVEAVNHWDEPDVLAEISREIGEPMRGQAIEELQVRMEERGILEHHHHHH | not soluble
16 | MSDYCSNDASPFGDYDLPSDEPSPKYQKLNKNIFSPLSPTFELKFQSKLRVSGNSTSSTTSDDSDDESLHRSNQLKHLETLFKESILRTSFSRPGVSNTSCDEKLDLVSEDEKKRLRNTEAARRCREKIKRKTDDLETELTRLTARNEVMNQHRIRLLSQVEEQMRMLENIKSRNPELEAEIRYEAKKIVDTYTHQVETKRKAIQDYFDMTCNKLY | not soluble
17 | MGSDKIHHHHHHLKQLLLDIQPPAAPSLDNFVTGRNAEALFQLRRTVLEHDDARFIYLWGETGCGKTHLIQACNALASASGLDMICVDDVHLLSNDDQVALFDLYNQLRESGGRLIVSGLAAPSQMGLRDDLATRLAWGLSYQLHPLSDEEKTQALKNHAEARGMKLPDEVLDYCLRHLRRDMPSLIATIDALDEWSLISKRAVTLPLLKQLLQTST | not soluble
18 | GMFASLVIPVSAQANSGEMPQEQQLAVKYMDALTEHDYKTLITFYNRDSIFFDKTANRKYTGGRFIIDFLERAHQGVLEYDFNIEHMYNAGSLVVMIGNYHFKGPGEQFGKPGKIIDVAIPAVTSLKLDMLNRRVTEHVDLIDYQTMSDQLAMQ | soluble
19 | SNGILREVSGIASNSAFYWTNLTSKPYMGFRSGRNWSMTSGDIRTVRSQVPEVEFISPIMWGARSNKNVVFGDKSETYSIVGAEPDYFEISRVNILQGRMLNAVDDKLRRKVCMIGKEVKEKLFGTTDPIGQVLRVNGLYYRVIGVLEAKSNNVTIGSSPKRSVYLPYSVLQQISNSGNRVENFAVSAYPSADMKQMFKKTETIIRSRNQIAPDDDKALSKFDISAQFQLMNMIFTGINL | not soluble
20 | MRIFVYGSLRQKQGNSHWMTNAQLLGDYRIDNYQLYSLGHYPGAVPGNGAVYGEVYRIDNATLAELDALRTRGGEYARQLIQTPYGSAWMYVYQRPVDGLTLIESGDWLDRNQP | not soluble
